Key:
[1] = system: K4 kissing-loop RNA reporter; assay: apparent KD of K4 kissing-loop reporter; higher = weaker reporter binding; conditions: Eterna round: R107;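 further: bound reporter read as fluorescence of individual clusters on recovered sequencing chips by microscopy, with normalized cluster intensities fitted with a binding model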
Description: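 RNA-MaP round R107: designed RNA switches with theophylline, tryptophan, arginine or FMN aptamers are transcribed on-chip within common flanks. They are titrated with a labelled K4 kissing-loop RNA reporter in RNA-MaP buffer (100 mM Tris pH 7.5, 80 mM KCl, 4 mM MgCl2), without ligand or with the indicated ligand. Median apparent KD per design.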

MS2 coat protein = assay: apparent KD of MS2 coat protein; designed switch direction (-1 OFF switch, 1 ON switch): -1; higher = weaker reporter binding
In short: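 Designed RNA switches with common flanks were made on Illumina chips by stalled E. coli RNA polymerase. Titration with SNAP-549-labelled MS2 coat protein doubled from 0.7 or 1.5 nM up to 3 µM. Apparent KD is each design's median over clusters after curve-fitting normalised fluorescence.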

[2] = input ligand: microRNA oligo, concentration not stated
[3] = Eterna round: R95, input ligand: microRNA oligo, concentration not stated
[4] = Eterna round: R95, input ligand: FMN 200 uM
[5] = Eterna round: R95, input ligand: none

Sequence	apparent KD of MS2 coat protein (MS2 coat protein; input ligand: FMN 200 uM)	apparent KD of MS2 coat protein (MS2 coat protein; input ligand: none)	apparent KD of MS2 coat protein (MS2 coat protein; [3])	also measured
AAAAUAAACCAGUGAUGUUGGUGUCCGGAUACCAGCGAUAAUCAUCGCCCUUGGCAGCCGCGGACGUACAAAAUAAGUACGUCCU [MatMod 13 - Jieux - Same State - Theophylline A]				apparent KD of K4 kissing-loop reporter ([1]; input ligand: FMN 200 uM): 457 nM; apparent KD of K4 kissing-loop reporter ([1]; input ligand: arginine 13.2 mM): 271 nM; apparent KD of K4 kissing-loop reporter ([1]; input ligand: none): 346 nM; apparent KD of K4 kissing-loop reporter ([1]; input ligand: theophylline 20 uM): 310 nM; apparent KD of K4 kissing-loop reporter ([1]; input ligand: tryptophan 2.4 mM): 256 nM
UUUAUAUAUGAAGGAUAUACUUAACAUGAGGAUCACCCAUGUGGUGUUGUGAGUGAGUGAGUUUAGUAGAAGGUCAAUGAUUUU [JMF's solution 70] (Eterna round: R96, puzzle: Exclusion NG 2)	810 nM	360 nM		apparent KD of MS2 coat protein (MS2 coat protein; [2]): 306 nM
UUUAUGUCAGGAUAUACAUGAGGAUCACCCAUGUAUACCUUAAGGUAUACAUGGGAAUGUAGAAGGGACCUCCU [Omei Ex3 Pseudoloop 8] (Eterna round: R97, puzzle: Exclusion 3)	26.6 nM	46.7 nM		
UUUAUGUCAGGAUAUGAUUAGAUCUACUUCGGUAGAUCUAAUCAGAAGGGACAUGAGGAUCACCCAUGUUUUUU [Ex4 - 3 - 16] (puzzle: Exclusion 4)			41.6 nM	
UUUAUGUGAGGAUAUAGUACUCCUUCUAUUAUUUUUGAGUACUAGAAGGCACAUGAGGAUCACCCAUGUAGUAC [Ex4 - 3 - 38] (puzzle: Exclusion 4)			22.1 nM	
UUUCUUGGGCAAGGAUAUCCUGUGCGGUUCCGGCUCGUGUCUGUCACAUGAGGAUCACCCAUGUGGGAGAAGGUGCCUGCGGUU [Design 83] (Eterna round: R96, puzzle: Exclusion NG 2)	15.4 nM	15.6 nM		apparent KD of MS2 coat protein (MS2 coat protein; [2]): 10.7 nM
UUUGAUGUUGAGGAUAUGCUUUUUUUUAUUAUAGCAGAAGGCGAUACAUGAGGAUCACCCAUGUUCAUGGCUUU [JR_E6_Sub098] (puzzle: Exclusion 6)			14.1 nM	
UUUGGGCAAGCAUGAUCCCACAUGAGGAUCACCCAUGUGUUCGUCUUAUAGGCUGCUGAGGCUUUUGCCUCGGUGGC [LRO Sensor-off var1-01 loose mod of D91 from Mat747] (Eterna round: R97, puzzle: Sensor, turn-off variant 1)	751 nM	965 nM		
UUUGUACAUGAGGAUCACCCAUGUCAGGAUAUGUCAUCGCCGUCUGCCAGACGGCGUCACAGAAGGGACAUGCA [EX1 C.16] (Eterna round: R97, puzzle: Exclusion 1)	104 nM	34.1 nM		
UUUGUAUAGGUAGGAUAUACUUUCAAUUUUUUUUUCCUUACAUGAGGAUCACCCAUGUUUACAUUGUAGAAGGACCUCAUUGUU [JR_ExcNG2_Sub049] (Eterna round: R96, puzzle: Exclusion NG 2)				apparent KD of MS2 coat protein (MS2 coat protein; [2]): 325 nM
UUUGUUGUUGUGAGGAUAUCGUUGUUAUUUUGAAACGAGAAGGCACAUGAGGAUCACCCAUGUUUGUUGUUGGU [JR_BMOE4_Sub059] (puzzle: Brourd's mod of Exclusion 4)			48.8 nM	
UUUGUUUAUGUAGGAUAUGCCUGGCGUGCCUUCGCAGAAGGACAUGAGGAUCACCCAUGUAUUGCGGUCUGCGUUCAGAUCGCG [salish99_ExNG1_r4_029] (Eterna round: R96, puzzle: Exclusion NG 1)	52 nM	43.2 nM		apparent KD of MS2 coat protein (MS2 coat protein; [2]): 34.8 nM
UUUGUUUAUGUAGGAUAUGCCUGGCGUGCCUUUGCAGAAGGACAUGAGGAUCACCCAUGUAACAUGAGGCUCACCCAUGUCGCC [salish99_ExNG1_r04_113] (Eterna round: R96, puzzle: Exclusion NG 1)	134 nM	165 nM		apparent KD of MS2 coat protein (MS2 coat protein; [2]): 91.6 nM
UUUGUUUAUGUAGGAUAUGCCUGGCGUGCCUUUGCAGAAGGACAUGAGGAUCACCCAUGUAACAUGAGGCUCACCCAUGUCGCU [salish99_ExNG1_r04_111] (Eterna round: R96, puzzle: Exclusion NG 1)	240 nM	292 nM		apparent KD of MS2 coat protein (MS2 coat protein; [2]): 180 nM
UUUUAACAAGCGAGGUCCUACAUGAGGAUCACCCAUGUAUGUCAUGGAUUCCAUGGUCUUUUUGCUCGUCUUGUGUG [jl TITIN mod 8] (Eterna round: R97, puzzle: Sensor, turn-off variant 1)	103 nM	105 nM		
UUUUAACAUGAGGAUCACCCAUGUGAGGAUAUCGAAAUUUAUAUUAAUAUUAUUAAAACGAGAAGGCACAUUUU [JMF 35] (puzzle: Exclusion 1)			62.9 nM	
UUUUAACAUGAGGAUCACCCAUGUGAGGAUAUCGAAAUUUAUAUUUAUAUUAAUAUAUCGAGAAGGCACAUUUU [JMF 80] (puzzle: Exclusion 1)			93.1 nM	

Sequence	apparent KD of MS2 coat protein (MS2 coat protein; input ligand: FMN 200 uM)	apparent KD of MS2 coat protein (MS2 coat protein; input ligand: none)	apparent KD of MS2 coat protein (MS2 coat protein; [3])	also measured
UUUUAACAUGAGGAUCACCCAUGUGAGGAUAUCGAAAUUUAUAUUUAUAUUAAUUAUUCGAGAAGGCACAUUUU [JMF 85] (puzzle: Exclusion 1)			131 nM	
UUUUAACAUGAGGAUCACCCAUGUGAGGAUAUCGUUAUUUUUAUUAAUAUUAAUAAAACGAGAAGGCACAUUUU [JMF 14] (puzzle: Exclusion 1)			98.3 nM	
UUUUACAAGCUAAGAUCCUACAUGAGGAUCACCCAUGUGGUCCGGUGACGUGAGUCACCGGACUUAGCUCGUCUUGG [salish99_S_TOV1_R5_087] (Eterna round: R97, puzzle: Sensor, turn-off variant 1)	69.5 nM	84.7 nM		
UUUUACAUGCUGAGAUCCUACAUGAGGAUCACCCAUGUGGUCCGGUGACUUUUGUCACCGGAUUUUGCUCGUCUUGU [salish99_S_TOV1_R5_101] (Eterna round: R97, puzzle: Sensor, turn-off variant 1)	84.8 nM	108 nM		
UUUUACGCAGGAUAUACAUUUUUUUUAUUAUCCUCAUUAUUACAUGAGGAUCACCCAUGUAGAAGGGCGAUUUU [My Design] (puzzle: Exclusion 2)			38.8 nM	
UUUUAGAGAGGAUAUAUAUUGUGAAACAUGAGGAUCACCCAUGUAAUAAUAUGGAUGUAAAUAGAAGGCUCAUUUA [JL-ex5-3.03] (puzzle: Exclusion 5)			44.6 nM	apparent KD of MS2 coat protein (MS2 coat protein; [4]): 37.5 nM; apparent KD of MS2 coat protein (MS2 coat protein; [5]): 42.7 nM
UUUUAGAGAGGAUAUAUUAUGUGAAACAUGAGGAUCACCCAUGUAAUAUAAUGGAUGUAAAUAGAAGGCUCAUUUA [Mat - Exclusion 5 - JL mod - D22] (puzzle: Exclusion 5)			28.4 nM	apparent KD of MS2 coat protein (MS2 coat protein; [4]): 28.4 nM; apparent KD of MS2 coat protein (MS2 coat protein; [5]): 41.1 nM
UUUUAGCAAGCGAGAUCCCACAUGAGGAUCACCCAUGUGCAUCCAGAAUUACUGGGUGCAAAAGCUCGUCUUAUAUA [Winner reversed engineered] (Eterna round: R97, puzzle: Sensor, turn-off variant 1)	54.9 nM	50.1 nM		
UUUUAGUCAGGAUAUACAUGAGGAUCACCCAUGUAAAAUUUUAAUUUAAUUUUAAGGUGUAGAAGGGACAACCC [Ex3 #13] (Eterna round: R97, puzzle: Exclusion 3)	26.6 nM	32.6 nM		
UUUUCUUUUGUGAGGAUAUACUUGUUUUUUUUUUUGUAGAAGGCACAUGAGGAUCACCCAUGUACUCUUUCCUG [JR_BME4_Sub024] (puzzle: Brourd's mod of Exclusion 4)			20.1 nM	
UUUUGCACGCUGCGGUCCUACAUGAGGAUCACCCAUGUGGUCUGGUGGCGUGGGUCGCCGGACUUGGCUCGUCUUGG [salish99_S_TOV1_R5_035] (Eterna round: R97, puzzle: Sensor, turn-off variant 1)	15.5 nM	14.9 nM		
UUUUGUUCAGGAUAUGUAGAAUUUAACAUGAGGAUCACCCAUGUAGAUCCUGAAUAAACUACAGAAGGGAACAUUU [Mat - Exclusion 5 - Eli Mod - D15] (Eterna round: R97, puzzle: Exclusion 5)	215 nM	27.4 nM		
UUUUUCGUUUAAGCUUCGUACAUGAGGAUCACCCAUGUUUUUAGUUCUGUGUUGGUCAGUAUGGAAGUUCGUCUUAU [JR_SV3TOV1_Sub089] (puzzle: Sensor v3, turn-off variant 1)			166 nM	apparent KD of MS2 coat protein (MS2 coat protein; [4]): 325 nM; apparent KD of MS2 coat protein (MS2 coat protein; [5]): 371 nM
UUUUUCUCAGGAUAUACAUGAGGAUCACCCAUGUAUAUUAAUGAUAAUACAUGGGAAUGUAGAAGGGAGCUCAU [Omei Ex3 Pseudoloop 13] (Eterna round: R97, puzzle: Exclusion 3)	111 nM	135 nM		
UUUUUGAUAGGAUAUACAUGAGGAUCACCCAUGUGUGACAGGACUGACGCUCUUCAUCGUAGAAGGAUCCGAGC [Eternabot (L1) Solution 97] (Eterna round: R97, puzzle: Exclusion 3)	27.4 nM	30.9 nM		
UUUUUGUGAGGAUAUCAGUAGUAGAACAAUAGUACUACUACUGAGAAGGCACAUGAGGAUCACCCAUGUUCCUU [Fiskers Ex 4 Super stable 44 mod 12] (puzzle: Exclusion 4)			14.9 nM	
UUUUUUGUAGUGAGGAUAUCGUUGUGGAUGUGGAUCGAGAAGGCACAUGAGGAUCACCCAUGUUAGUUGUGGUU [JR_BMOE4_Sub084] (puzzle: Brourd's mod of Exclusion 4)			188 nM	
